Test system: Escherichia coli TOP10
Assay: shrunken log2 fold change of peptide-encoding DNA abundance (4.5 h post-induction vs induction); higher = less antimicrobial activity (less host growth inhibition)
Settings: time post-induction: 4.5 h; library: site-saturation at positions 5, 18, 19, 20
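Further: peptides expressed intracellularly from a pBAD plasmid library in pooled LB shake-flask culture, induced with 0.3% L-arabinose, DNA abundance read by NGS, three biological replicates, DESeq2 with apeglm shrinkage.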

Sequence	shrunken log2 fold change
RRIRRRPPRLPRPRPRPNNYPRP	-0.378
RRIRKRPPRLPRPRPRPHCRPRP	-0.022
RRIRIRPPRLPRPRPRPWVPPRP	-0.28
RRIRNRPPRLPRPRPRPRQMPRP	0.0821
RRIRMRPPRLPRPRPRPSALPRP	0.105
RRIRVRPPRLPRPRPRPQSFPRP	-0.111
RRIRSRPPRLPRPRPRPHGKPRP	-0.18
RRIRARPPRLPRPRPRPNPTPRP	1.11
RRIRVRPPRLPRPRPRPINYPRP	-0.348
RRIRSRPPRLPRPRPRPHWEPRP	-0.0851
RRIRNRPPRLPRPRPRPIWFPRP	0.205
RRIRWRPPRLPRPRPRPWEEPRP	0.0688
RRIRFRPPRLPRPRPRPEFTPRP	1.75
RRIRERPPRLPRPRPRPPSQPRP	-0.213
RRIRARPPRLPRPRPRPPGFPRP	0.59
RRIRLRPPRLPRPRPRPWAIPRP	-0.0706
RRIRSRPPRLPRPRPRPDMTPRP	0.154
RRIRYRPPRLPRPRPRPNWWPRP	-0.00469
RRIRGRPPRLPRPRPRPKGFPRP	-0.0463
RRIRTRPPRLPRPRPRPAGFPRP	-0.0588
RRIRIRPPRLPRPRPRPHYYPRP	-0.413
RRIRARPPRLPRPRPRPSMDPRP	1.4

Sequence	shrunken log2 fold change
RRIRHRPPRLPRPRPRPSIAPRP	-0.0614
RRIRQRPPRLPRPRPRPEKDPRP	0.343
RRIRWRPPRLPRPRPRPLDSPRP	0.0674
RRIRFRPPRLPRPRPRPWLMPRP	-0.58
RRIRCRPPRLPRPRPRPFIIPRP	-0.577
RRIRFRPPRLPRPRPRPNCEPRP	0.194
RRIRTRPPRLPRPRPRPNLQPRP	-0.0672
RRIRVRPPRLPRPRPRPRPRPRP	0.62
RRIRGRPPRLPRPRPRPMCGPRP	0.645
RRIRQRPPRLPRPRPRPKFFPRP	-0.0285
RRIRYRPPRLPRPRPRPIPKPRP	0.141
RRIRWRPPRLPRPRPRPWSMPRP	-0.269
RRIRPRPPRLPRPRPRPNYKPRP	-0.537
RRIRPRPPRLPRPRPRPWRRPRP	0.142
RRIRRRPPRLPRPRPRPPTVPRP	0.24
RRIRVRPPRLPRPRPRPVLVPRP	-0.311
RRIRRRPPRLPRPRPRPAPKPRP	0.905
RRIRSRPPRLPRPRPRPDPIPRP	-0.0376
RRIRGRPPRLPRPRPRPYNDPRP	-0.155
RRIRQRPPRLPRPRPRPMAPPRP	0.0505
RRIRLRPPRLPRPRPRPYELPRP	0.00404
RRIRGRPPRLPRPRPRPGIHPRP	0.251

Sequence	shrunken log2 fold change
RRIRRRPPRLPRPRPRPCTRPRP	0.0341
RRIRIRPPRLPRPRPRPYCTPRP	-0.215
RRIRHRPPRLPRPRPRPRCNPRP	-0.331
RRIRQRPPRLPRPRPRPLDLPRP	-0.276
RRIRERPPRLPRPRPRPDMVPRP	0.0162
RRIRLRPPRLPRPRPRPIKYPRP	0.0258
RRIRVRPPRLPRPRPRPFNSPRP	-0.00973
RRIRPRPPRLPRPRPRPKAPPRP	0.171
RRIRSRPPRLPRPRPRPRVIPRP	0.017
RRIRHRPPRLPRPRPRPCQMPRP	-0.0239
RRIRSRPPRLPRPRPRPVKWPRP	-0.03
RRIRYRPPRLPRPRPRPMTQPRP	-0.0104
RRIRCRPPRLPRPRPRPGREPRP	2.28
RRIRCRPPRLPRPRPRPFTHPRP	-0.818
RRIRYRPPRLPRPRPRPTIDPRP	-0.271
RRIRDRPPRLPRPRPRPEYQPRP	0.637
RRIRERPPRLPRPRPRPHFKPRP	-0.342
RRIRDRPPRLPRPRPRPCYKPRP	0.0316
RRIRCRPPRLPRPRPRPMAEPRP	0.331
RRIRNRPPRLPRPRPRPSQVPRP	-0.0797
RRIRWRPPRLPRPRPRPMTTPRP	0.1
RRIRKRPPRLPRPRPRPNYGPRP	-0.226

Sequence	shrunken log2 fold change
RRIRPRPPRLPRPRPRPANQPRP	0.0414
RRIRERPPRLPRPRPRPMPEPRP	-0.114
RRIRARPPRLPRPRPRPSNKPRP	-0.31
RRIRGRPPRLPRPRPRPIMKPRP	0.227
RRIRERPPRLPRPRPRPEYEPRP	0.0303
RRIRNRPPRLPRPRPRPTDDPRP	0.0875
RRIRIRPPRLPRPRPRPRMHPRP	-0.0356
RRIRVRPPRLPRPRPRPDEIPRP	0.0183
RRIRPRPPRLPRPRPRPTMRPRP	0.744
RRIRERPPRLPRPRPRPFWWPRP	0.239
RRIRTRPPRLPRPRPRPHTRPRP	0.0252
RRIRPRPPRLPRPRPRPNVIPRP	-0.451
RRIRMRPPRLPRPRPRPIGSPRP	0.079
RRIRDRPPRLPRPRPRPTIVPRP	0.0194
RRIRDRPPRLPRPRPRPEMTPRP	0.679
RRIRWRPPRLPRPRPRPDQRPRP	0.098
RRIRPRPPRLPRPRPRPTVRPRP	0.0204
RRIRERPPRLPRPRPRPRNGPRP	0.0197
RRIRTRPPRLPRPRPRPLMWPRP	-0.151
RRIRQRPPRLPRPRPRPSKCPRP	-0.719
RRIRWRPPRLPRPRPRPQNTPRP	0.591
RRIRERPPRLPRPRPRPSCPPRP	-0.361

Sequence	shrunken log2 fold change
RRIRERPPRLPRPRPRPPHHPRP	-0.123
RRIRSRPPRLPRPRPRPFWLPRP	0.26
RRIRVRPPRLPRPRPRPPGPPRP	0.533
RRIRTRPPRLPRPRPRPLFAPRP	0.228
RRIRMRPPRLPRPRPRPVTKPRP	0.253
RRIRWRPPRLPRPRPRPPFWPRP	0.836
RRIRERPPRLPRPRPRPEGTPRP	-0.0267
RRIRNRPPRLPRPRPRPVWYPRP	-0.326
RRIRGRPPRLPRPRPRPISVPRP	-0.0351
RRIRPRPPRLPRPRPRPIIGPRP	-0.0597
RRIRDRPPRLPRPRPRPLMHPRP	0.164
RRIRLRPPRLPRPRPRPIESPRP	0.033
RRIRFRPPRLPRPRPRPEPKPRP	0.415
RRIRARPPRLPRPRPRPMITPRP	0.312
RRIRPRPPRLPRPRPRPEWQPRP	0.137
RRIRHRPPRLPRPRPRPAFHPRP	-0.152
RRIRVRPPRLPRPRPRPWLHPRP	0.215
RRIRQRPPRLPRPRPRPASKPRP	0.0503
RRIRRRPPRLPRPRPRPPKLPRP	0.0716
RRIRFRPPRLPRPRPRPQECPRP	0.0519
RRIRNRPPRLPRPRPRPPVMPRP	0.139
